# Assay results: patent publication EP4552657A1, “RADIOPHARMACEUTICAL COMPLEXES AND COMBINATIONS” (priority 2023, dated 2025)
# Columns and labels:
# [1] = molecular target: CEACAM5 coated on M270-carboxy Dynabeads (UniProt P06731); experiment: IRF assay on CEACAM5-coated M270-carboxy Dynabeads, 33 µg beads
# [2] = molecular target: CEACAM5 coated on M270-carboxy Dynabeads (UniProt P06731); experiment: IRF assay on CEACAM5-coated M270-carboxy Dynabeads, 100 µg beads
# [3] = molecular target: CEACAM5 coated on M270-carboxy Dynabeads (UniProt P06731); experiment: IRF assay on CEACAM5-coated M270-carboxy Dynabeads, 333 µg beads
# [4] = molecular target: human recombinant DLL3 antigen (human) (UniProt Q9NYJ7); experiment: IRF assay on recombinant human DLL3 coated M-270-carboxy Dynabeads, 10 µg beads
# Sequence of human recombinant DLL3 antigen (human) (Q9NYJ7 27-492 limits assumed): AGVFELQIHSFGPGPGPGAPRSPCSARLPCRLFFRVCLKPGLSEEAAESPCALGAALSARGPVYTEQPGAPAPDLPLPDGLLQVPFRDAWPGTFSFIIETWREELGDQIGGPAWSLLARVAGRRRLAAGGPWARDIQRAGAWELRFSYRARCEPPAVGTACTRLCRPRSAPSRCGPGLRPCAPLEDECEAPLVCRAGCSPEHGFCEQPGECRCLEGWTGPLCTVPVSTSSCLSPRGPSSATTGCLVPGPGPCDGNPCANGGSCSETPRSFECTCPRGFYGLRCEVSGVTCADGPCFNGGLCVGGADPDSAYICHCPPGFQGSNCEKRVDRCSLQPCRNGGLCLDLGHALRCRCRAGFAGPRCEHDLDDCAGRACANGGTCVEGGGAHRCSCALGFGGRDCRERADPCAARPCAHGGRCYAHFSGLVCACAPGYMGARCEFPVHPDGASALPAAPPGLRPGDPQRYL
# Sequence of CEACAM5 coated on M270-carboxy Dynabeads (P06731 35-685 limits assumed): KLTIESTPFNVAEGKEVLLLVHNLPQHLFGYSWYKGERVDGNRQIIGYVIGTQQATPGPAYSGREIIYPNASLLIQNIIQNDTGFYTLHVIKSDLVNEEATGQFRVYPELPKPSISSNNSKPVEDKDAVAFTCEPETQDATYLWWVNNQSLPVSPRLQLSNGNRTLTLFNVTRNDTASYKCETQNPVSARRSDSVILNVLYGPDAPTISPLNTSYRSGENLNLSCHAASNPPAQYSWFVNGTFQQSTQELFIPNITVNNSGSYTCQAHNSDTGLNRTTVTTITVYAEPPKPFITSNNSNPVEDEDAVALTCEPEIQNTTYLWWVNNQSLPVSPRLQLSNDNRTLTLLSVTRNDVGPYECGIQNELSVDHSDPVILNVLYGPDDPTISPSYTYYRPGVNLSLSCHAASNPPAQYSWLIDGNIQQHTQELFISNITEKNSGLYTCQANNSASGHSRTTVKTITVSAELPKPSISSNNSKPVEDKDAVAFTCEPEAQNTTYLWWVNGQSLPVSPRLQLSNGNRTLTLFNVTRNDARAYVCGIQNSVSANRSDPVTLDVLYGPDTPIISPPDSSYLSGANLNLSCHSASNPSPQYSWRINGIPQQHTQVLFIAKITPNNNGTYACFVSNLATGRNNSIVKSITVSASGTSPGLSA
Substance,IRF (immunoreactive fraction) [1] [%],IRF (immunoreactive fraction) [2] [%],IRF (immunoreactive fraction) [3] [%],maximum binding (IRF) [4] [%]
Ac-225-macropa-Labetuzumab (antibody),43,88,97,–
Ac-225-macropa-Rovalpituzumab (antibody),–,–,–,86
